From publication PMC9482650, “Quantitative fragmentomics allow affinity mapping of interactomes” (Nature Communications, 2022)

T1: FRMPD1, Q5SYB0
T1 sequence (Q5SYB0 52-145, limits assumed, looked up): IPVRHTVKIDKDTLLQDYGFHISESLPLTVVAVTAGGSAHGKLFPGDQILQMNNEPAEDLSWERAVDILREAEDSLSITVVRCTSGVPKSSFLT

T2: PDZD2_2, O15018
T2 sequence (O15018 329-429, limits assumed, looked up): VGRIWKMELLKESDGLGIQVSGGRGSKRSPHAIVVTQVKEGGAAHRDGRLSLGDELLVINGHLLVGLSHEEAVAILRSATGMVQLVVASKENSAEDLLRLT

T3: RAPGEF6, Q8TEU7
T3 sequence (Q8TEU7 525-625, limits assumed, looked up): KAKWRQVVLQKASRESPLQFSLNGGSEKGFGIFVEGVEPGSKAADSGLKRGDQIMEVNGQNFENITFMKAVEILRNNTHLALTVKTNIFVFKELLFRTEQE

T4: MPDZ_5, O75970
T4 sequence (O75970 695-796, limits assumed, looked up): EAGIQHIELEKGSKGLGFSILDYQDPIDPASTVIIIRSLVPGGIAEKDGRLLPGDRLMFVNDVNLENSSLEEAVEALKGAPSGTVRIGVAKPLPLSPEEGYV

T5: DFNB31_3, Q9P202
T5 sequence (Q9P202 811-907, limits assumed, looked up): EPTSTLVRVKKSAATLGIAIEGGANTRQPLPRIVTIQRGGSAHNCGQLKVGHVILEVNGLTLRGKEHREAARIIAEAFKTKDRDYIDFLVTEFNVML

T6: PTPN13_1, Q12923
T6 sequence (Q12923 1088-1188, limits assumed, looked up): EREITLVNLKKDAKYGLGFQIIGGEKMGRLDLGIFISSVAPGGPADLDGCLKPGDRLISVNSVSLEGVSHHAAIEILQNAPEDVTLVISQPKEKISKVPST

T7: DLG3_3, Q92796
T7 sequence (Q92796 374-475, limits assumed, looked up): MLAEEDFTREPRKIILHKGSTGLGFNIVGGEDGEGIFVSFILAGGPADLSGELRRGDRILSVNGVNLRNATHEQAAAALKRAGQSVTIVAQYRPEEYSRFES

T8: GRIP1_2, Q9Y3R0
T8 sequence (Q9Y3R0 145-248, limits assumed, looked up): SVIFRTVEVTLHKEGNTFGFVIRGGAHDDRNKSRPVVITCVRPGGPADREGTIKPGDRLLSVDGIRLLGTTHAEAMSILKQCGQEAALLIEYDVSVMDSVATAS

T9: LNX2_3, Q8N448
T9 sequence (Q8N448 463-564, limits assumed, looked up): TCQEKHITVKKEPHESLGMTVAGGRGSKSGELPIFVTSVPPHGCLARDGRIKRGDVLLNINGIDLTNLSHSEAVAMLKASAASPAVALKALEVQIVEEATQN

T10: MPDZ_12, O75970
T10 sequence (O75970 1857-1958, limits assumed, looked up): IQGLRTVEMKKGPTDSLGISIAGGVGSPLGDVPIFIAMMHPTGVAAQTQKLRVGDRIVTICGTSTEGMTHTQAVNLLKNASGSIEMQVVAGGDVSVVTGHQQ

T11: APBA2_1, Q99767
T11 sequence (Q99767 563-664, limits assumed, looked up): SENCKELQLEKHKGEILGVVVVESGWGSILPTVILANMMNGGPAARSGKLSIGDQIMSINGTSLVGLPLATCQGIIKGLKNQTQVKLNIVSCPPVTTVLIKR

T12: RHPN1, Q8TCX5
T12 sequence (Q8TCX5 508-602, limits assumed, looked up): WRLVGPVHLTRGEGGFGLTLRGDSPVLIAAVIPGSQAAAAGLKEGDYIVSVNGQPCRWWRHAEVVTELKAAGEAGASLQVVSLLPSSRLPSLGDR


How the values were obtained:
Test in all cases: holdup assay
Parameters in all cases: key: below the threshold = too weak to quantify, mostly under pKd 3.1 to 4
Details in all cases: plain residues with an end cap or a label only (N-terminal biotin on a linker: ado-ado)
HTRA2, O43464 = biological target: HTRA2, O43464
FRMPD1, Q5SYB0 = biological target: T1, FRMPD1, Q5SYB0
SNX27, Q96L92 = biological target: SNX27, Q96L92
PDZD2_2, O15018 = biological target: T2, PDZD2_2, O15018
RAPGEF6, Q8TEU7 = biological target: T3, RAPGEF6, Q8TEU7
MPDZ_5, O75970 = biological target: T4, MPDZ_5, O75970
DFNB31_3, Q9P202 = biological target: T5, DFNB31_3, Q9P202
PTPN13_1, Q12923 = biological target: T6, PTPN13_1, Q12923
DLG3_3, Q92796 = biological target: T7, DLG3_3, Q92796
DLG2_2, Q15700 = biological target: DLG2_2, Q15700
NHERF4_1, Q86UT5-2 = biological target: NHERF4_1, Q86UT5-2
GRIP1_2, Q9Y3R0 = biological target: T8, GRIP1_2, Q9Y3R0
LNX2_3, Q8N448 = biological target: T9, LNX2_3, Q8N448
NOS1, P29475 = biological target: NOS1, P29475
AHNAK1, Q09666 = biological target: AHNAK1, Q09666
MPDZ_12, O75970 = biological target: T10, MPDZ_12, O75970
LNX1_2, Q8TBB1 = biological target: LNX1_2, Q8TBB1
APBA2_1, Q99767 = biological target: T11, APBA2_1, Q99767
Inadl_8, Q8NI35 = biological target: Inadl_8, Q8NI35
GRIP2_7, Q9C0E4 = biological target: GRIP2_7, Q9C0E4
RHPN1, Q8TCX5 = biological target: T12, RHPN1, Q8TCX5
GRIP2_3, Q9C0E4 = biological target: GRIP2_3, Q9C0E4
MAGI2_2, Q86UL8 = biological target: MAGI2_2, Q86UL8
FRMPD2_3, Q68DX3 = biological target: FRMPD2_3, Q68DX3
FRMPD2_3, Q68DX3, sequence (Q68DX3 1073-1166): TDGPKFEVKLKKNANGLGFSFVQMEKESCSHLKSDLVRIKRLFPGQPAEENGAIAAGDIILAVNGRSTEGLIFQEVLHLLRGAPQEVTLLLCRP

GRIP2_7, Q9C0E4, sequence (Q9C0E4 934-1023): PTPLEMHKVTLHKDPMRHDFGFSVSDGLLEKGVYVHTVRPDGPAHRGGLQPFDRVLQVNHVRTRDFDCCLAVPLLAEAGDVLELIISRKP
MAGI2_2, Q86UL8, sequence (Q86UL8 410-522): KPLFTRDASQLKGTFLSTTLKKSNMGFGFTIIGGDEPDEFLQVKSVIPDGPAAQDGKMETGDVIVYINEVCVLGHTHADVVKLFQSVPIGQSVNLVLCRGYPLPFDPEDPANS
DLG2_2, Q15700, sequence (Q15700 189-283): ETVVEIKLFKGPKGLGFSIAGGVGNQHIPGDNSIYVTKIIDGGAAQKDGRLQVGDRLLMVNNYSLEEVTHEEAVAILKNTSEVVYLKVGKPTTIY
HTRA2, O43464, sequence (O43464 355-458): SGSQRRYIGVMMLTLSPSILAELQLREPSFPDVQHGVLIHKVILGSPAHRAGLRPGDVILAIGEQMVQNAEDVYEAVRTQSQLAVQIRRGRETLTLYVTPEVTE
NOS1, P29475, sequence (P29475 9-101): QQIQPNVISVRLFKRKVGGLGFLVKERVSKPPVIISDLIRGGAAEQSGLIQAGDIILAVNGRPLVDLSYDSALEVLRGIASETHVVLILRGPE
AHNAK1, Q09666, sequence (Q09666 4-100): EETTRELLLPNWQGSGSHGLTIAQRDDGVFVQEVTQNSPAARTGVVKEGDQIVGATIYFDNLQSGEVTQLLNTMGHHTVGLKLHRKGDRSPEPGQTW
NHERF4_1, Q86UT5-2, sequence (Q86UT5 other isoform, or with tags, fused parts or gaps): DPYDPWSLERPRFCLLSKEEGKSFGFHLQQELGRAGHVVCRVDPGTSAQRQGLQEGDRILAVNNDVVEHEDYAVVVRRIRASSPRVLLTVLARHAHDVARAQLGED
Inadl_8, Q8NI35, sequence (Q8NI35 1425-1530): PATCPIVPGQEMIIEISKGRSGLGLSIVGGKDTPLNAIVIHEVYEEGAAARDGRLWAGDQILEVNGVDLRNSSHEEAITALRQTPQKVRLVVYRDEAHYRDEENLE
GRIP2_3, Q9C0E4, sequence (Q9C0E4 238-339): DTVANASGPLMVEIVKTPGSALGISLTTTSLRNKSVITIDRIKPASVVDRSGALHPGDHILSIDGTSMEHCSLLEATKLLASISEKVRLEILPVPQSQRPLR
LNX1_2, Q8TBB1, sequence (Q8TBB1 371-470): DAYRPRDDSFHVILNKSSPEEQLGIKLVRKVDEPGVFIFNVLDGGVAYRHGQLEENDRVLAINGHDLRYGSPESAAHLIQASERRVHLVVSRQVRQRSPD

pKd (HTRA2, O43464)	pKd (FRMPD1, Q5SYB0)	pKd (SNX27, Q96L92)	pKd (PDZD2_2, O15018)	pKd (RAPGEF6, Q8TEU7)	pKd (MPDZ_5, O75970)	pKd (DFNB31_3, Q9P202)	pKd (PTPN13_1, Q12923)	pKd (DLG3_3, Q92796)	pKd (DLG2_2, Q15700)	pKd (NHERF4_1, Q86UT5-2)	pKd (GRIP1_2, Q9Y3R0)	pKd (LNX2_3, Q8N448)	pKd (NOS1, P29475)	pKd (AHNAK1, Q09666)	pKd (MPDZ_12, O75970)	pKd (LNX1_2, Q8TBB1)	pKd (APBA2_1, Q99767)	pKd (Inadl_8, Q8NI35)	pKd (GRIP2_7, Q9C0E4)	Binder	other results
below the threshold	below the threshold	5.6	below the threshold	below the threshold	below the threshold	3.63	below the threshold	below the threshold	below the threshold	3.86	below the threshold	below the threshold	3.52	below the threshold	below the threshold	below the threshold	below the threshold	below the threshold	below the threshold	DDPSTAETVL [ABCA7, Q8IZY2]	pKd (RHPN1, Q8TCX5): 4.92; pKd (GRIP2_3, Q9C0E4): below the threshold; pKd (MAGI2_2, Q86UL8): below the threshold; pKd (FRMPD2_3, Q68DX3): below the threshold
4.68	below the threshold	below the threshold	4.27	3.57	below the threshold	below the threshold	below the threshold	below the threshold	3.72	3.67	below the threshold	below the threshold	below the threshold	below the threshold	3.52	5.3	below the threshold	below the threshold	4.35	VDSTVKVWTC [TRAF7, Q6Q0C0]	pKd (RHPN1, Q8TCX5): below the threshold; pKd (GRIP2_3, Q9C0E4): below the threshold; pKd (MAGI2_2, Q86UL8): 3.65; pKd (FRMPD2_3, Q68DX3): 3.71
below the threshold	below the threshold	below the threshold	3.97	3.53	below the threshold	4.08	below the threshold	below the threshold	3.65	below the threshold	below the threshold	below the threshold	3.51	below the threshold	below the threshold	below the threshold	below the threshold	4.35	below the threshold	TPPAAKKSRI [BAZ1A, Q9NRL2]	pKd (RHPN1, Q8TCX5): 3.61; pKd (GRIP2_3, Q9C0E4): below the threshold; pKd (MAGI2_2, Q86UL8): below the threshold; pKd (FRMPD2_3, Q68DX3): below the threshold
3.94	below the threshold	4.38	5.81	3.5	4.06	below the threshold	below the threshold	below the threshold	3.62	4.06	below the threshold	below the threshold	4.89	below the threshold	3.57	3.75	below the threshold	3.59	4.04	HLRARKSEWV [GJD4, Q96KN9]	pKd (RHPN1, Q8TCX5): below the threshold; pKd (GRIP2_3, Q9C0E4): below the threshold; pKd (MAGI2_2, Q86UL8): below the threshold; pKd (FRMPD2_3, Q68DX3): below the threshold
below the threshold	below the threshold	below the threshold	below the threshold	below the threshold	below the threshold	below the threshold	below the threshold	below the threshold	below the threshold	below the threshold	below the threshold	below the threshold	below the threshold	below the threshold	below the threshold	below the threshold	below the threshold	below the threshold	below the threshold	LSEFKAMDSI [CTNNA1, P35221]	pKd (RHPN1, Q8TCX5): below the threshold; pKd (GRIP2_3, Q9C0E4): below the threshold; pKd (MAGI2_2, Q86UL8): below the threshold; pKd (FRMPD2_3, Q68DX3): below the threshold
below the threshold	below the threshold	3.83	4.25	below the threshold	below the threshold	4.8	below the threshold	below the threshold	4.32	3.85	below the threshold	below the threshold	4.2	below the threshold	below the threshold	below the threshold	below the threshold	3.54	below the threshold	QHKTQLQTLI [BPIFA2, Q96DR5]	pKd (RHPN1, Q8TCX5): 4.26; pKd (GRIP2_3, Q9C0E4): below the threshold; pKd (MAGI2_2, Q86UL8): 4.43; pKd (FRMPD2_3, Q68DX3): below the threshold
